Results as given in patent US20240325490A1 (RESEARCH AND BUSINESS FOUNDATION SUNGKYUNKWAN UNIVERSITY, published 2024).

Experiments:
[1] = molecular target: T1, P62 (endogenous, mouse brain) (mouse, UniProt Q64337 2-442, limits assumed); assay: protein ligation assay (PLA) in situ, mouse brain CA1 after MCAO
T1 construct: Endogenous protein in mouse brain tissue

[2] = molecular target: T1, P62 (endogenous, mouse brain); assay: immunoprecipitation / immunoblot from AAV2-injected mouse brains after MCAO (FIGS. 6F and 6G)

B1: EBP1 (endogenous, mouse brain) (other, UniProt P50580 2-394, looked up)
chain: SGEDEQQEQTIAEDLVVTKYKMGGDIANRVLRSLVEASSSGVSVLSLCEKGDAMIMEETGKIFKKEKEMKKGIAFPTSISVNNCVCHFSPLKSDQDYILKEGDLVKIDLGVHVDGFIANVAHTFVIGVAQGTQVTGRKADVIKAAHLCAEAALRLVKPGNQNTQVTEAWNKVAHSFNCTPIEGMLSHQLKQHVIDGEKTIIQNPTDQQKKDHEKAEFEVHEVYAVDVLVSSGEGKAKDAGQRTTIYKRDPSKQYGLKMKTSRAFFSEVERRFDAMPFTLRAFEDEKKARMGVVECAKHELLQPFNVLYEKEGEFVAQFKFTVLLMPNGPMRITSGPFEPDLYKSEMEVQDAELKALLQSSASRKTQKKKKKKASKTVENATSGETLEENGAGD
notes: Endogenous protein detected in situ by PLA; also called mouse Ebp1
B1: binds [1].

B2: GFP-EBP1-K376A expressed from AAV2 in mouse brain (other, UniProt Q9UQ80 1-394, looked up)
chain: MSGEDEQQEQTIAEDLVVTKYKMGGDIANRVLRSLVEASSSGVSVLSLCEKGDAMIMEETGKIFKKEKEMKKGIAFPTSISVNNCVCHFSPLKSDQDYILKEGDLVKIDLGVHVDGFIANVAHTFVVDVAQGTQVTGRKADVIKAAHLCAEAALRLVKPGNQNTQVTEAWNKVAHSFNCTPIEGMLSHQLKQHVIDGEKTIIQNPTDQQKKDHEKAEFEVHEVYAVDVLVSSGEGKAKDAGQRTTIYKRDPSKQYGLKMKTSRAFFSEVERRFDAMPFTLRAFEDEKKARMGVVECAKHELLQPFNVLYEKEGEFVAQFKFTVLLMPNGPMRITSGPFEPDLYKSEMEVQDAELKALLQSSASRKTQKKKKKKASATAENATSGETLEENEAGD
notes: also called AAV2-GFP-EBP1-K376A; AAV2-K376A; not shown: GFP tag
B2: no binding [2].
